Results on 15 molecules are retold here after patent publication US12099068B2, “Biomarkers for graft-versus-host disease” (Incyte Corporation, priority 2018, dated 2024).

To fix the notation:
B1: PRKRA (protein, UniProt O75569 1-313, looked up)
Interferon-inducible …: MSQSRHRAEAPPLEREDSGTFSLGKMITAKPGKTPIQVLHEYGMKTKNIPVYECERSDVQIHVPTFTFRVTVGDITCTGEGTSKKLAKHRAAEAAINILKANASICFAVPDPLMPDPSKQPKNQLNPIGSLQELAIHHGWRLPEYTLSQEGGPAHKREYTTICRLESFMETGKGASKKQAKRNAAEKFLAKFSNISPENHISLTNVVGHSLGCTWHSLRNSPGEKINLLKRSLLSIPNTDYIQLLSEIAKEQGFNITYLDIDELSANGQYQCLAELSTSPITVCHGSGISCGNAQSDAAHNALQYLKIIAERK
B2: REN (protein, UniProt P00797 67-406, looked up)
Renin: LTLGNTTSSVILTNYMDTQYYGEIGIGTPPQTFKVVFDTGSSNVWVPSSKCSRLYTACVYHKLFDASDSSSYKHNGTELTLRYSTGTVSGFLSQDIITVGGITVTQMFGEVTEMPALPFMLAEFDGVVGMGFIEQAIGRVTPIFDNIISQGVLKEDVFSFYYNRDSENSQSLGGQIVLGGSDPQHYEGNFHYINLIKTGVWQIQMKGVSVGSSTLLCEDGCLALVDTGASYISGSTSSIEKLMEALGAKKRLFDYVVKCNEGPTLPDISFHLGGKEYTLTSADYVFQESYSSKKLCTLAIHAMDIPPPTGPTWALGATFIRKFYTEFDRRNNRIGFALAR
B3: KAZALD1 (protein, UniProt Q96I82 31-304, looked up)
Kazal-type serine protease …: RPSPGPDYLRRGWMRLLAEGEGCAPCRPEECAAPRGCLAGRVRDACGCCWECANLEGQLCDLDPSAHFYGHCGEQLECRLDTGGDLSRGEVPEPLCACRSQSPLCGSDGHTYSQICRLQEAARARPDANLTVAHPGPCESGPQIVSHPYDTWNVTGQDVIFGCEVFAYPMASIEWRKDGLDIQLPGDDPHISVQFRGGPQRFEVTGWLQIQAVRPSDEGTYRCLGRNALGQVEAPASLTVLTPDQLNSTGIPQLRSLNLVPEEEAESEENDDYY
B4: SERPINA9 (protein, UniProt Q86WD7 24-417, looked up)
Serpin A9: ANAPSAYPRPSSTKSTPASQVYSLNTDFAFRLYRRLVLETPSQNIFFSPVSVSTSLAMLSLGAHSVTKTQILQGLGFNLTHTPESAIHQGFQHLVHSLTVPSKDLTLKMGSALFVKKELQLQANFLGNVKRLYEAEVFSTDFSNPSIAQARINSHVKKKTQGKVVDIIQGLDLLTAMVLVNHIFFKAKWEKPFHPEYTRKNFPFLVGEQVTVHVPMMHQKEQFAFGVDTELNCFVLQMDYKGDAVAFFVLPSKGKMRQLEQALSARTLRKWSHSLQKRWIEVFIPRFSISASYNLETILPKMGIQNVFDKNADFSGIAKRDSLQVSKATHKAVLDVSEEGTEATAATTTKFIVRSKDGPSYFTVSFNRTFLMMITNKATDGILFLGKVENPTKS
B5: CD48 (protein, UniProt P09326 27-220, looked up)
CD48 antigen: QGHLVHMTVVSGSNVTLNISESLPENYKQLTWFYTFDQKIVEWDSRKSKYFESKFKGRVRLDPQSGALYISKVQKEDNSTYIMRVLKKTGNEQEWKIKLQVLDPVPKPVIKIEKIEDMDDNCYLKLSCVIPGESVNYTWYGDKRPFPKELQNSVLETTLMPHNYSRCYTCQVSNSVSSKNGTVCLSPPCTLARS
B6: CD200R1 (protein, UniProt Q8TD46 25-348, looked up)
Cell surface glycoprotein …: EGAAQPNNSLMLQTSKENHALASSSLCMDEKQITQNYSKVLAEVNTSWPVKMATNAVLCCPPIALRNLIIITWEIILRGQPSCTKAYKKETNETKETNCTDERITWVSRPDQNSDLQIRTVAITHDGYYRCIMVTPDGNFHRGYHLQVLVTPEVTLFQNRNRTAVCKAVAGKPAAHISWIPEGDCATKQEYWSNGTVTVKSTCHWEVHNVSTVTCHVSHLTGNKSLYIELLPVPGAKKSAKLYIPYIILTIIILTIVGFIWLLKVNGCRKYKLNKTESTPVVEEDEMQPYASYTEKNNPLYDTTNKVKASEALQSEVDTDLHTL
B7: TACSTD2 (protein, UniProt P09758 27-323, looked up)
Tumor-associated calcium …: HTAAQDNCTCPTNKMTVCSPDGPGGRCQCRALGSGMAVDCSTLTSKCLLLKARMSAPKNARTLVRPSEHALVDNDGLYDPDCDPEGRFKARQCNQTSVCWCVNSVGVRRTDKGDLSLRCDELVRTHHILIDLRHRPTAGAFNHSDLDAELRRLFRERYRLHPKFVAAVHYEQPTIQIELRQNTSQKAAGDVDIGDAAYYFERDIKGESLFQGRGGLDLRVRGEPLQVERTLIYYLDEIPPKFSMKRLTAGLIAVIVVVVVALVAGMAVLVITNRRKSGKYKKVEIKELGELRKEPSL
B8: PODXL (protein, UniProt O00592 23-558, looked up)
Podocalyxin: SPSPSPSPSQNATQTTTDSSNKTAPTPASSVTIMATDTAQQSTVPTSKANEILASVKATTLGVSSDSPGTTTLAQQVSGPVNTTVARGGGSGNPTTTIESPKSTKSADTTTVATSTATAKPNTTSSQNGAEDTTNSGGKSSHSVTTDLTSTKAEHLTTPHPTSPLSPRQPTSTHPVATPTSSGHDHLMKISSSSSTVAIPGYTFTSPGMTTTLLETVFHHVSQAGLELLTSGDLPTLASQSAGITASSVISQRTQQTSSQMPASSTAPSSQETVQPTSPATALRTPTLPETMSSSPTAASTTHRYPKTPSPTVAHESNWAKCEDLETQTQSEKQLVLNLTGNTLCAGGASDEKLISLICRAVKATFNPAQDKCGIRLASVPGSQTVVVKEITIHTKLPAKDVYERLKDKWDELKEAGVSDMKLGDQGPPEEAEDRFSMPLIITIVCMASFLLLVAALYGCCHQRLSQRKDQQRLTEELQTVENGYHDNPTLEVMETSSEMQEKKVVSLNGELGDSWIVPLDNLTKDDLDEEEDTHL
B9: CD244 (protein, UniProt Q9BZW8 22-370, looked up)
Natural killer cell receptor …: CQGSADHVVSISGVPLQLQPNSIQTKVDSIAWKKLLPSQNGFHHILKWENGSLPSNTSNDRFSFIVKNLSLLIKAAQQQDSGLYCLEVTSISGKVQTATFQVFVFESLLPDKVEKPRLQGQGKILDRGRCQVALSCLVSRDGNVSYAWYRGSKLIQTAGNLTYLDEEVDINGTHTYTCNVSNPVSWESHTLNLTQDCQNAHQEFRFWPFLVIIVILSALFLGTLACFCVWRRKRKEKQSETSPKEFLTIYEDVKDLKTRRNHEQEQTFPGGGSTIYSMIQSQSSAPTSQEPAYTLYSLIQPSRKSGSRKRNHSPSFNSTIYEVIGKSQPKAQNPARLSRKELENFDVYS
B10: NINJ1 (protein, UniProt Q92982 1-152, looked up)
Ninjurin-1: MDSGTEEYELNGGLPPGTPGSPDASPARWGWRHGPINVNHYASKKSAAESMLDIALLMANASQLKAVVEQGPSFAFYVPLVVLISISLVLQIGVGVLLIFLVKYDLNNPAKHAKLDFLNNLATGLVFIIVVVNIFITAFGVQKPLMDMAPQQ
B11: THY 1 (protein, UniProt P04216 20-130, looked up)
Thy-1 membrane glycoprotein: QKVTSLTACLVDQSLRLDCRHENTSSSPIQYEFSLTRETKKHVLFGTVGVPEHTYRSRTNFTSKYNMKVLYLSAFTSKDEGTYTCALHHSGHSPPISSQNVTVLRDKLVKC
B12: ITGB1BP2 (protein, UniProt Q9UKP3 1-347, looked up)
Integrin beta-1-binding …: MSLLCRNKGCGQHFDPNTNLPDSCCHHPGVPIFHDALKGWSCCRKRTVDFSEFLNIKGCTMGPHCAEKLPEAPQPEGPATSSSLQEQKPLNVIPKSAETLRRERPKSELPLKLLPLNISQALEMALEQKELDQEPGAGLDSLIRTGSSCQNPGCDAVYQGPESDATPCTYHPGAPRFHEGMKSWSCCGIQTLDFGAFLAQPGCRVGRHDWGKQLPASCRHDWHQTDSLVVVTVYGQIPLPAFNWVKASQTELHVHIVFDGNRVFQAQMKLWGVINVEQSSVFLMPSRVEISLVKADPGSWAQLEHPDALAKKARAGVVLEMDEEESDDSDDDLSWTEEEEEEEAMGE
B13: SERPINA12 (protein, UniProt Q8IW75 21-414, looked up)
Serpin A12: LKPSFSPRNYKALSEVQGWKQRMAAKELARQNMDLGFKLLKKLAFYNPGRNIFLSPLSISTAFSMLCLGAQDSTLDEIKQGFNFRKMPEKDLHEGFHYIIHELTQKTQDLKLSIGNTLFIDQRLQPQRKFLEDAKNFYSAETILTNFQNLEMAQKQINDFISQKTHGKINNLIENIDPGTVMLLANYIFFRARWKHEFDPNVTKEEDFFLEKNSSVKVPMMFRSGIYQVGYDDKLSCTILEIPYQKNITAIFILPDEGKLKHLEKGLQVDTFSRWKTLLSRRVVDVSVPRLHMTGTFDLKKTLSYIGVSKIFEEHGDLTKIAPHRSLKVGEAVHKAELKMDERGTEGAAGTGAQTLPMETPLVVKIDKPYLLLIYSEKIPSVLFLGKIVNPIGK
B14: LY9 (protein, UniProt Q9HBG7 48-655, looked up)
T-lymphocyte surface antigen …: KDSAPTVVSGILGGSVTLPLNISVDTEIENVIWIGPKNALAFARPKENVTIMVKSYLGRLDITKWSYSLCISNLTLNDAGSYKAQINQRNFEVTTEEEFTLFVYEQLQEPQVTMKSVKVSENFSCNITLMCSVKGAEKSVLYSWTPREPHASESNGGSILTVSRTPCDPDLPYICTAQNPVSQRSSLPVHVGQFCTDPGASRGGTTGETVVGVLGEPVTLPLALPACRDTEKVVWLFNTSIISKEREEAATADPLIKSRDPYKNRVWVSSQDCSLKISQLKIEDAGPYHAYVCSEASSVTSMTHVTLLIYRRLRKPKITWSLRHSEDGICRISLTCSVEDGGNTVMYTWTPLQKEAVVSQGESHLNVSWRSSENHPNLTCTASNPVSRSSHQFLSENICSGPERNTKLWIGLFLMVCLLCVGIFSWCIWKRKGRCSVPAFCSSQAEAPADTPEPTAGHTLYSVLSQGYEKLDTPLRPARQQPTPTSDSSSDSNLTTEEDEDRPEVHKPISGRYEVFDQVTQEGAGHDPAPEGQADYDPVTPYVTEVESVVGENTMYAQVFNLQGKTPVSQKEESSATIYCSIRKPQVVPPPQQNDLEIPESPTYENFT
B15: STX8 (protein, UniProt Q9UNK0 1-236, looked up)
Syntaxin-8: MAPDPWFSTYDSTCQIAQEIAEKIQQRNQYERKGEKAPKLTVTIRALLQNLKEKIALLKDLLLRAVSTHQITQLEGDRRQNLLDDLVTRERLLLASFKNEGAEPDLIRSSLMSEEAKRGAPNPWLFEEPEETRGLGFDEIRQQQQKIIQEQDAGLDALSSIISRQKQMGQEIGNELDEQNEIIDDLANLVENTDEKLRNETRRVNMVDRKSASCGMIMVILLLLVAIVVVAVWPTN

The test system of the assay is plasma proteins. The assay is described as follows: Plasma proteins modulated between baseline and day 28 in responders (CR, VGPR, PR; n = 19), Example 6 (Table 13). Format: in vivo, human. Conditions: plasma protein (OLINK NPX); responders (CR, VGPR, PR; n = 19); itacitinib 200 mg or 300 mg QD with corticosteroids; day 28 vs baseline. An outline of the steps: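 Plasma at baseline/screening and day 28 profiled for >1000 proteins by OLINK proximity extension assay, reported as NPX (log2). Steroid-naive and steroid-refractory patients pooled. Paired and unpaired t tests, ANOVA and Pearson correlation applied; significance at P<0.05.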
For B1, the “Fold Change, Decreased Expression from Baseline to Day 28” value (shortened to “Fold Change, Decreased Expression”) was −1.2761. Regarding B2, the “Fold Change, Increased Expression from Baseline to Day 28” value (from here on “Fold Change, Increased Expression”) worked out at 1.4074.

As for B3, the “Fold Change, Increased Expression” value came out at 1.2609.

As to B4, the “Fold Change, Increased Expression” value was found to be 1.5418.

Take B5: the “Fold Change, Decreased Expression” value is −1.6022.

Take B6: the “Fold Change, Decreased Expression” value is listed as −1.4752. With B7, the “Fold Change, Increased Expression” value was 1.1931.

As to B8, the “Fold Change, Increased Expression” value turned out to be 1.2014. Take B9: the “Fold Change, Decreased Expression” value was −1.5176. On to B10, for which the “Fold Change, Increased Expression” value is given as 1.2723. As to B11, the “Fold Change, Decreased Expression” value is listed as −1.2913. For the molecule B12, the “Fold Change, Decreased Expression” value was −1.8787. Consider B13, for which the “Fold Change, Increased Expression” value was found to be 1.567.

On to B14, for which the “Fold Change, Decreased Expression” value was −1.4447.

B15: the “Fold Change, Decreased Expression” value is listed as −1.4796.
